From patent US8524668

Molecular target: TLR2/TLR6 heterodimer
Assay: cell-based or functional assay

Row | Substance | NF-κB activation
1 | CBLB613 (peptide) | 200
2 | CBLB617 (peptide) | 100
